Laboratory results: article PMC10203282, “Structural analysis of an endogenous 4-megadalton succinyl-CoA-generating metabolon” (Communications Biology, 2023)

Key:
[1] = molecular target: dihydrolipoyl succinyltransferase (E2o) of the oxoglutarate dehydrogenase complex (Chaetomium thermophilum (endogenous in the native cell extract)); assay: cryo-EM structure; native SEC fraction of C. thermophilum lysate, 0.3 mg/mL, single-particle analysis with octahedral symmetry; E2o core map at 3.35 Å
[2] = substrate: CC(C)(COP(=O)(O)OP(=O)(O)OC[C@H]1O[C@@H](n2cnc3c(N)ncnc32)[C@H](O)[C@@H]1OP(=O)(O)O)[C@@H](O)C(=O)NCCC(=O)NCCS; assay: cells, lysate or membranes; format: biochemical, Thermochaetoides thermophila; settings: native SEC fraction, 4 mM α-ketoglutarate, 3 mM NAD+, 2 mM ThDP, 2 mM MgCl2, 100 mM NaCl, 30 mM K2HPO4 pH 7.5, 37 °C, CoA 5-1000 µM, substrate excess inhibition, linear asymptote used

Molecule | stoichiometry N [1] | Km [2]
dihydrolipoyl succinyltransferase (E2o) of the oxoglutarate dehydrogenase complex (enzyme) | 24 | 
OGDHc (E2o as CoA site) (Thermochaetoides thermophila DSM 1495) (protein, same complex as P1: endogenous native OGDHc in SEC fraction 6 of cell extract; with 2-oxoglutarate dehydrogenase, mitochondrial; Dihydrolipoyl dehydrogenase, mitochondrial; Alpha-ketoglutarate dehydrogenase subunit 4, mitochondrial) TYADKIIKVPQMAESITEGTLKQWNKAVGDYVEADEEIATIETDKIDVAVNAPEAGVIKEFFVNEEDTVLVGQDLVRLEVGGEKPAEAAKEQPKAAAPEPKVEEKKVPEAPAPEPSKTAAPAPAPPKQEAPASPKPASKPAETPAVTLGNREERRVKMNRMRLRIAERLKQSQNTAASLTTFNEVDMSALIEFRNKYKDEVLKKTGVKLGFMSAFSRAVVLAIRDLPVVNASIEGPNGGDTIVYRDYVDISVAVATEKGLVTPVVRNAETMDLITIEKTIAELGKKARDGKLTIEDMAGGTFTISNGGVFGSLMGTPIINLPQSAVLGLHAIKERPVAVNGKVEIRPMMYLALTYDHRLLDGREAVQFLVKVKEYIEDPRKMLL |  | 22.81 ± 11.93 µM
